Experimental findings from patent US20100081792A1 (published 2010) are described below.

In one assay the target is T1, mouse VEGF (mouse, UniProt Q00731-2 27-190, limits assumed).
T1 sequence (looked up): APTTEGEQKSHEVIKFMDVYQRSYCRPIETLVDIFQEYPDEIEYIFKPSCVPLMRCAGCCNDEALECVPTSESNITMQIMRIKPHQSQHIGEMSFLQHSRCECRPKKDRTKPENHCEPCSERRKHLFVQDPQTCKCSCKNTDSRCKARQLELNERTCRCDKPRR
As to the kind of experiment: receptor binding assay, dAb cross-linked by anti-Myc tag antibody.

Another assay addresses T2, human VEGF (human, UniProt P15692-4 27-191).
T2 construct: also called VEGF165
The description is as above.

B1: TAR15-26 (other)
VH: EVQLLESGGGLVQPGGSLRLSCAASGFTFGAYPMMWVRQAPGKGLEWVSEISPSGSYTYYADSVKGRFTISRDNSKNTLYLQMNSLRAEDTAVYYCAKDPRKFDYWGQGTLVTVSS
notes: VH dAb; carries a Myc tag in the cross-linked assay
Take B1: the IC50 with mouse VEGF worked out at 10 nM; with human VEGF, 3 nM.
